Biological target: T1, cyclo-CLLFCL (head-to-tail cyclic peptide)
T1 chain: CLLFCL
Assay: microscale thermophoresis

Kd: 470 nM
B1: HIF-1α PAS-B (protein)
chain: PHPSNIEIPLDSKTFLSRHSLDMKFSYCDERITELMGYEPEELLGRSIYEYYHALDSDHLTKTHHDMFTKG
